Consider five substances from PMC3733160.

Like-named read-outs stand apart in the source and are kept apart here.

Experiment [1] has as its target 2-CysPrx C-terminally truncated variant ΔC (–20 aa), non-tagged (Arabidopsis thaliana). In words: SEC. For orientation: Size exclusion chromatography separates by hydrodynamic size, large species first.
Experiment [2] concerns the target 2-CysPrx C54S variant, non-tagged (Arabidopsis thaliana). Put plainly: SEC.
The target in experiment [3] is 2-Cysteine peroxiredoxin A (At2-CysPrx) wild type, non-tagged (Arabidopsis thaliana). Put plainly: SEC.
Experiment [4] shares this target. Put plainly: SEC. This is another data set of the same source.
The target is the same in experiment [5]. In words: ITC.
Experiment [6] deals with 2-CysPrx C176S variant, non-tagged (Arabidopsis thaliana). Put plainly: SEC.
The target is the same in experiment [7]. In words: ITC. (In ITC the heat of successive injections is recorded.)
The target in experiment [8] is 2-CysPrx F84R variant, non-tagged (Arabidopsis thaliana). Put plainly: SEC.
Experiment [9] shares this target. Put plainly: SEC. This is another data set of the same source.

As for “2-CysPrx C-terminally truncated variant ΔC (–20 aa), non-tagged (enzyme)”, the stoichiometry N in [1] is 2.

“2-CysPrx C54S variant, non-tagged (enzyme)” displayed a stoichiometry N in experiment [2] of 10.

In turn, “2-Cysteine peroxiredoxin A (At2-CysPrx) wild type, non-tagged (enzyme)” had a stoichiometry N in experiment [3] of 10. The substance also came in with a stoichiometry N in [4] of 2. Further, in experiment [5], the CTC (critical transition concentration, oligomer to dimers) came out at 3.73 µM and the dH (dissociation enthalpy ΔHm) worked out at 72 kcal/mol.

“2-CysPrx C176S variant, non-tagged (enzyme)” yielded a stoichiometry N in [6] of 10. In [7], this substance came in with a CTC (critical transition concentration, oligomer to dimers) of 0.63 µM and a dH (dissociation enthalpy ΔHm) of 1610 kcal/mol.

Take “2-CysPrx F84R variant, non-tagged (enzyme)”: the stoichiometry N in experiment [8] and in experiment [9] was 2 throughout.

In general, stoichiometry N refers to a count of units in the complex or per binding partner.
